From patent US8293494
Positions count from the first letter of the chain named. Names and notes keep the numbering of the source.

B1: recombinant JMJD2C (aa 12-349) (protein)
chain: PSCKIMTFRPSMEEFREFNKYLAYMESKGAHRAGLAKVIPPKEWKPRQCYDDIDNLLIPAPIQQMVTGQSGLFTQYNIQKKAMTVKEFRQLANSGKYCTPRYLDYEDLERKYWKNLTFVAPIYGADINGSIYDEGVDEWNIARLNTVLDVVEEECGISIEGVNTPYLYFGMWKTTFAWHTEDMDLYSINYLHFGEPKSWYAIPPEHGKRLERLAQGFFPSSSQGCDAFLRHKMTLISPSVLKKYGIPFDKITQEAGEFMITFPYGYHAGFNHGFNCAESTNFATVRWIDYGKVAKLCTCRKDMVKISMDIFVRKFQPDRYQLWKQGKDIYTIDHTKPT
B2: mutant JMJD2C H190A (aa 12-349) (protein)
chain: B1 chain with H179A

Assays:
[1] = biological target: histone H3 dimethylated at lysine 9 (core histones or nucleosomes from HeLa cells), P68431
[2] = biological target: histone H3 trimethylated at lysine 9 (core histones or nucleosomes from HeLa cells), P68431
[3] = biological target: histone H3 monomethylated at lysine 9 (core histones or nucleosomes from HeLa cells), P68431

Row | Protein | in vitro demethylation assay, Western blot with α-dimethyl H3K9 [1] | in vitro demethylation assay, Western blot with α-trimethyl H3K9 [2] | in vitro demethylation assay, Western blot with α-monomethyl H3K9 [3]
1 | B1 | the methylation status of mono- and dimethyl H3K9 is not altered | Recombinant JMJD2C very efficiently demethylates trimethyl H3K9 on both core histones and nucleosomes in vitro | the methylation status of mono- and dimethyl H3K9 is not altered
2 | B2 | – | the enzymatically impaired mutant JMJD2C H190A fails to demethylate | –
